No end group written: not given here.
Assays:
[1] = biological target: T1, microtubule nucleation from purified centrosomes (bovine brain tubulin) (Bos taurus, UniProt P81947+Q6B856); test: In vitro centrosome-dependent microtubule nucleation assay; assay type: biochemical; conditions: for Effect of synthetic peptide on centrosome-dependent microtubule nucleation (in words): 20 μM or 40 μM peptide; for Inhibition of microtubule nucleation/assembly from purified centrosomes (in words): in vitro
T1 construct: containing 125 μg bovine brain tubulin (Cytoskeleton, Denver, Colo.); purchased Cytoskeleton, Denver, Colo; host or cells: bovine brain (tissue-purified)
T1 sequence (P81947 whole entry): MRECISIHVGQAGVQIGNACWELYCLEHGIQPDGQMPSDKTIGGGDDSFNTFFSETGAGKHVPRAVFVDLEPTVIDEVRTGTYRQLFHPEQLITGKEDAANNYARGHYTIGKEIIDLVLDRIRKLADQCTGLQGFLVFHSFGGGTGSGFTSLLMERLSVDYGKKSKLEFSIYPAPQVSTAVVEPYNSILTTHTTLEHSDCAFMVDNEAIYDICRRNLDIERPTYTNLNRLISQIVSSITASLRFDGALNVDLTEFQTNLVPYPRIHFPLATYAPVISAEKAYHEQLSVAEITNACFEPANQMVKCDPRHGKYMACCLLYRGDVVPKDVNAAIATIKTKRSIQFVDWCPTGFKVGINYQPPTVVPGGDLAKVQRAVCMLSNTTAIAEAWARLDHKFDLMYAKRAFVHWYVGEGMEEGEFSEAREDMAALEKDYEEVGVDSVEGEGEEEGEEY
T1 sequence (Q6B856 whole entry): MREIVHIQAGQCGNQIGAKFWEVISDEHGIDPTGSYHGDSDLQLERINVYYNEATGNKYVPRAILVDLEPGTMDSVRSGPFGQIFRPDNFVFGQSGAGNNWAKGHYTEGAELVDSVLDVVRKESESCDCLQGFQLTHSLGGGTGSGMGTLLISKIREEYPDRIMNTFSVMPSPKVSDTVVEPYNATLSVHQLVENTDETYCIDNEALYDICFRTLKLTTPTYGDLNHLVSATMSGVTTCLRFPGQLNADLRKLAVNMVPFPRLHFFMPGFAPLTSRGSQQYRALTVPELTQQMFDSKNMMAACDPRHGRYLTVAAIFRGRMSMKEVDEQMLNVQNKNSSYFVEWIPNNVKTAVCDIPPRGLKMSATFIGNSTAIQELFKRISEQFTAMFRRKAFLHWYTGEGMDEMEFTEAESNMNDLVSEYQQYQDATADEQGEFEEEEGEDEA
Method: In vitro Centrosome-Dependant Microtubule Nucleation Assay
Isolation of centrosomes and microtubule nucleation tests were performed as described (Hung et al., 2000). To investigate the effect of different GST-truncated CPAP fusion proteins on microtubule nucleation, purified centrosomes (4 μl per reaction) were pre-incubated with the various truncated GST-CPAP fusion proteins or FPLC purified synthetic peptides for 10 min at 4° C. The reaction mixtures were then incubated in 65 μl RG1 buffer (80 mM PIPES, pH 6.8, 1 mM EGTA, 1 mM MgCl2, and 1 mM GTP) containing 125 μg bovine brain tubulin (Cytoskeleton, Denver, Colo.) for 4 min at 37° C.
Microtubules present in the reaction mixtures were fixed in 200 μl 1% glutaraldehyde in RG1 buffer, sedimented onto acid-treated coverslips, and subjected to immunofluoresence analysis using anti-α-tubulin monoclonal antibodies N356 (Amersham, Piscataway, N.J.) or FITC-conjugated anti-α-tubulin monoclonal antibodies (DM1A-FITC; Sigma, Saint Louis, Mo.). Truncated GST-CPAP proteins were detected using an anti-GST polyclonal antibody (Molecular Probes, Cincinnati, Ohio). The extent of microtubule assembly in each reaction was determined microscopically by comparing the extent of microtubule formation on each coverslip. Decreased microtubule formation in reactions comprising polypeptides derived from CPAP indicated the ability of such polypeptides to inhibit centrosome-dependent microtubule assembly.

HeLa cells = test: Cell-based assay for CPAP activity: microtubule reassembly in cold-treated transfected HeLa cells; parameters: species or system human; conditions: for Inhibition of microtubule reassembly in cold-treated mitotic cells (in words): transiently transfected HeLa cells
Method: Cell Culture and Transfection
HeLa cells were maintained in DMEM supplemented with 10% fetal bovine serum. cDNA clones encoding different portions of CPAP were subcloned, in an appropriate reading frame, into the CMV promoter-driven EGFP-C1 expression vector (Clontech, Palo Alto, Calif.). Transient transfections were performed using Lipofectamine 2000 (Invitrogen, Carlsbad, Calif.) according to the manufacturer's instructions.
Cold Treatment, Immunofluorescence and Confocal Microscopy
HeLa cells were grown on coverslips for at least 24 hr. Cold treatment was performed by incubating the cells at 4° C. for 1 hr, then replacing the cold medium with medium warmed to 30° C. and incubating the cells for 2 min at 30° C. The cells were then fixed with 1% formaldehyde for 30 min at room temperature.
The fixed cells were incubated in the presence of anti-α-tubulin monoclonal antibodies (N356, Amersham, Piscataway, N.J.) and anti-γ-tubulin polyclonal antibodies (Sigma, Saint Louis, Mo.). Bound anti-α-tubulin monoclonal antibodies (N356) were detected with Alexa 568, a Texas Red-conjugated goat anti-mouse IgG, or Alexa 647, a far-red fluorophore-conjugated goat anti-mouse IgG. Bound anti-γ-tubulin polyclonal antibodies were detected with Alexa 568 (Molecular Probes Inc.). The resulting […] signals were detected using a laser scanning confocal system (MRC 1000, Bio-Rad Laboratories, Hercules, Calif.).
The effect of various polypeptides derived from CPAP was determined by evaluating the amounts of mitotic spindle formation in the transfected cells. Decreased mitotic spindle formation indicated the presence of an activity that inhibited microtubule formation or destabilized microtubules.

Effect of synthetic peptide on centrosome-dependent microtubule nucleation (in words) [1]	Molecule	Inhibition of microtubule nucleation/assembly from purified centrosomes (in words) [1]	other results
No effect	peptide N: synthetic peptide, amino acid residues 310-329 of CPAP (SEQ ID NO:1) (LQKHDDSSEVANIEERPIKA; listed as Homo sapiens)		
No effect	peptide C1: synthetic peptide, amino acid residues 363-392 of CPAP (SEQ ID NO:1) (GPLPIKAKPKQPFLKRGEGLARFTNAKSKF; listed as Homo sapiens)		
	GST-PN2-3C: GST fusion with PN2-3C, amino acid residues 369-422 of CPAP (non-helical motif) (AKPKQPFLKRGEGLARFTNAKSKFQKGKESKLVTNQSTSEDQPLFKMDRQQLQR; also: GST tag, terminus not given here; UniProt Q9HC77 369-422, looked up, fragment)	less inhibition	
	GFP-PN2-1: GFP-tagged CPAP residues 132-190 (EFKEGAYKDPLFKKLEQLKEVQQKKQEQLKRQQLEQLQRLMEEQEKLLTMVSGQCTLPG; also: GFP tag, terminus not given here; UniProt Q9HC77 132-190, looked up, fragment)		Inhibition of microtubule reassembly in cold-treated mitotic cells (in words) (HeLa cells): no significant inhibition
No effect	peptide C2: synthetic peptide, amino acid residues 393-423 of CPAP (SEQ ID NO:1) (QKGKESKLVTNQSTSEDQPLFKMDRQQLQRK; listed as Homo sapiens)		
No effect	peptide H2: synthetic peptide, amino acid residues 327-362 of CPAP (SEQ ID NO:1) (IKAAIGERKQTFEDYLEEQIQLEEQELKQKQLKEAE; listed as Homo sapiens)		
	L353P: PN2-3 polypeptide with L353 mutated to proline (protein, listed as Homo sapiens) MFLMPTSSELNSGQNFLTQWMTNPSRAGVILNRGFPILEADKEKRAAVDISTSFPIKGTHFSDSFSFINEEDSLLEEQKLESNNPYKPQSDKSETHTAFPCIKKGPQVAACHSAPGHQEENKNDFIPDRASEFKEGAYKDPLFKKLEQLKEVQQKKQEQLKRQQLEQLQRLMEEQEKLLTMVSGQCTLPGLSLLPDDQSQKHRSPGNTTTGERATCCFPSYVYPDPTQEETYPSNILSHEQSNFCRTAHGDFVLTSKRASPNLFSEAQYQEAPVEKNNLKEENRNHPTGESILCWEKVTEQIQEANDKNLQKHDDSSEVANIEERPIKAAIGERKQTFEDYLEEQIQLEEQEPKQKQLKEAEGPLPIKAKPKQPFLKRGEGLARFTNAKSKFQKGKESKLVTNQSTSEDQPLFKMDRQQLQRKTALKNKELCADNPILKKDSKARTKSGSVTLSQKPKMLKCSNRKSLSPSGLKIQTGKKCDGQFRDQIKFENKVTSNNKENVTECPKPCDTGCTGWNKTQGKDRLPLSTGPASRLAAKSPIRETMKESESSLDVSLQKKLETWEREKEKENLELDEFLFLEQAADEISFSSNSSFVLKILERDQQICKGHRMSSTPVKAVPQKTNPADPISHCNRSEDLDHTAREKESECEVAPKQLHSLSSADELREQPCKIRKAVQKSTSENQTEWNARDDEGVPNSDSSTDSEEQLDVTIKPSTEDRERGISSREDSPQVCDDKGPFKDTRTQEDKRRDVDLDLSDKDYSSDESIMESIKHKVSEPSRSSSLSLSKMDFDDERTWTDLEENLCNHDVVLGNESTYGTPQTCYPNNEIGILDKTIKRKIAPVKRGEDLSKSRRSRSPPTSELMMKFFPSLKPKPKSDSHLGNELKLNISQDQPPGDNARSQVLREKIIELETEIEKFKAENASLAKLRIERESALEKLRKEIADFEQQKAKELARIEEFKKEEMRKLQKERKVFEKYTTAARTFPDKKEREEIQTLKQQIADLREDLKRKETKWSSTHSRLRSQIQMLVRENTDLREEIKVMERFRLDAWKRAEAIESSLEVEKKDKLANTSVRFQNSQISSGTQVEKYKKNYLPMQGNPPRRSKSAPPRDLGNLDKGQAASPREPLEPLNFPDPEYKEEEEDQDIQGEISHPDGKVEKVYKNGCRVILFPNGTRKEVSADGKTITVTFFNGDVKQVMPDQRVIYYYAAAQTTHTTYPEGLEVLHFSSGQIEKHYPDGRKEITFPDQTVKNLFPDGQEESIFPDGTIVRVQRDGNKLIEFNNGQRELHTAQFKRREYPDGTVKTVYANGHQETKYRSGRIRVKDKEGNVSMDTEL	showed the ability to inhibit microtubule assembly	
	GFP-CPAP-fl: GFP-tagged full-length CPAP polypeptide, residues 1-1338, expressed from a transfected vector (protein, UniProt Q9HC77 1-1338, looked up, full-length GFP tag, GFP-tagged full-length CPAP polypeptide, residues 1-1338, expressed from a transfected vector) MFLMPTSSELNSGQNFLTQWMTNPSRAGVILNRGFPILEADKEKRAAVDISTSFPIKGTHFSDSFSFINEEDSLLEEQKLESNNPYKPQSDKSETHTAFPCIKKGPQVAACHSAPGHQEENKNDFIPDLASEFKEGAYKDPLFKKLEQLKEVQQKKQEQLKRQQLEQLQRLMEEQEKLLTMVSGQCTLPGLSLLPDDQSQKHRSPGNTTTGERATCCFPSYVYPDPTQEETYPSNILSHEQSNFCRTAHGDFVLTSKRASPNLFSEAQYQEAPVEKNNLKEENRNHPTGESILCWEKVTEQIQEANDKNLQKHDDSSEVANIEERPIKAAIGERKQTFEDYLEEQIQLEEQELKQKQLKEAEGPLPIKAKPKQPFLKRGEGLARFTNAKSKFQKGKESKLVTNQSTSEDQPLFKMDRQQLQRKTALKNKELCADNPILKKDSKARTKSGSVTLSQKPKMLKCSNRKSLSPSGLKIQTGKKCDGQFRDQIKFENKVTSNNKENVTECPKPCDTGCTGWNKTQGKDRLPLSTGPASRLAAKSPIRETMKESESSLDVSLQKKLETWEREKEKENLELDEFLFLEQAADEISFSSNSSFVLKILERDQQICKGHRMSSTPVKAVPQKTNPADPISHCNRSEDLDHTAREKESECEVAPKQLHSLSSADELREQPCKIRKAVQKSTSENQTEWNARDDEGVPNSDSSTDSEEQLDVTIKPSTEDRERGISSREDSPQVCDDKGPFKDTRTQEDKRRDVDLDLSDKDYSSDESIMESIKHKVSEPSRSSSLSLSKMDFDDERTWTDLEENLCNHDVVLGNESTYGTPQTCYPNNEIGILDKTIKRKIAPVKRGEDLSKSRRSRSPPTSELMMKFFPSLKPKPKSDSHLGNELKLNISQDQPPGDNARSQVLREKIIELETEIEKFKAENASLAKLRIERESALEKLRKEIADFEQQKAKELARIEEFKKEEMRKLQKERKVFEKYTTAARTFPDKKEREEIQTLKQQIADLREDLKRKETKWSSTHSRLRSQIQMLVRENTDLREEIKVMERFRLDAWKRAEAIESSLEVEKKDKLANTSVRFQNSQISSGTQVEKYKKNYLPMQGNPPRRSKSAPPRDLGNLDKGQAASPREPLEPLNFPDPEYKEEEEDQDIQGEISHPDGKVEKVYKNGCRVILFPNGTRKEVSADGKTITVTFFNGDVKQVMPDQRVIYYYAAAQTTHTTYPEGLEVLHFSSGQIEKHYPDGRKEITFPDQTVKNLFPDGQEESIFPDGTIVRVQRDGNKLIEFNNGQRELHTAQFKRREYPDGTVKTVYANGHQETKYRSGRIRVKDKEGNVLMDTEL		Inhibition of microtubule reassembly in cold-treated cells (in words) (HeLa cells; transfected HeLa cells expressing lower levels of the construct): no significant inhibition; Inhibition of microtubule reassembly in cold-treated mitotic cells (in words) (HeLa cells): significantly inhibited microtubule reassembly
	PN2-3: PN2-3 polypeptide with wild-type CPAP sequence, residues 311-422 of SEQ ID NO:1, expressed using pET vectors (protein, listed as Homo sapiens) QKHDDSSEVANIEERPIKAAIGERKQTFEDYLEEQIQLEEQELKQKQLKEAEGPLPIKAKPKQPFLKRGEGLARFTNAKSKFQKGKESKLVTNQSTSEDQPLFKMDRQQLQR	showed the ability to inhibit microtubule assembly	
	GST-PN2: GST fusion polypeptide corresponding to amino acid residues 132-422 of CPAP (protein, UniProt Q9HC77 132-422, looked up, fragment, GST tag, GST fusion polypeptide corresponding to amino acid residues 132-422 of CPAP) EFKEGAYKDPLFKKLEQLKEVQQKKQEQLKRQQLEQLQRLMEEQEKLLTMVSGQCTLPGLSLLPDDQSQKHRSPGNTTTGERATCCFPSYVYPDPTQEETYPSNILSHEQSNFCRTAHGDFVLTSKRASPNLFSEAQYQEAPVEKNNLKEENRNHPTGESILCWEKVTEQIQEANDKNLQKHDDSSEVANIEERPIKAAIGERKQTFEDYLEEQIQLEEQELKQKQLKEAEGPLPIKAKPKQPFLKRGEGLARFTNAKSKFQKGKESKLVTNQSTSEDQPLFKMDRQQLQR	inhibited	
